# Data: patent US20260167721A1 (ABLEXIS, published 2026)
# B1: CD3 × CD33-BspAb72 (bispecific antibody)
# chain 1: EVQLVESGGGLVQPGGSLRLSCAASGFTFSSYSMNWVRQAPGKCLEWVSYISSSSSTIYYADSVKGRFTISRDNAKNSLYLQMNSLRDEDTAVYYCARDGPVDYGMDVWGQGTTVTVSSGGGGSGGGGSGGGGSGGGGSSYELTQPPSVSVSPGQTARITCSGDALPKQYTYWYQQKPGQAPVLVIYKDSERPSGIPERFSGSSSGTTVTLTISGVQAEDEADYYCQSADSSGTYRVFGCGTKLTVLDKTHTCPPCPAPEFEGGPSVFLFPPKPKDTLMISRTPEVTCVVVDVSHEDPEVKFNWYVDGVEVHNAKTKPREEQYNSTYRVVSVLTVLHQDWLNGKEYKCKVSNKALPASIEKTISKAKGQPREPQVYTLPPCREEMTKNQVSLWCLVKGFYPSDIAVEWESNGQPENNYKTTPPVLDSDGSFFLYSKLTVDKSRWQQGNVFSCSVMHEALHNHYTQKSLSLSPGK
# chain 2: EVQLVQSGAEVKKPGSSVKVSCKASGYTITDSNIHWVRQAPGQSLEWIGYIYPYNGGTDYNQKFKNRATLTVDNPTNTAYMELSSLRSEDTAFYYCVNGNPWLAYWGQGTLVTVSSASTKGPSVFPLAPSSKSTSGGTAALGCLVKDYFPEPVTVSWNSGALTSGVHTFPAVLQSSGLYSLSSVVTVPSSSLGTQTYICNVNHKPSNTKVDKRVEPKSCDKTHTCPPCPAPEFEGGPSVFLFPPKPKDTLMISRTPEVTCVVVDVSHEDPEVKFNWYVDGVEVHNAKTKPREEQYNSTYRVVSVLTVLHQDWLNGKEYKCKVSNKALPASIEKTISKAKGQPREPQVCTLPPSREEMTKNQVSLSCAVKGFYPSDIAVEWESNGQPENNYKTTPPVLDSDGSFFLVSKLTVDKSRWQQGNVFSCSVMHEALHNRFTQKSLSLSPGK
# chain 3: DIQLTQSPSTLSASVGDRVTITCRASESLDNYGIRFLTWFQQKPGKAPKLLMYAASNQGSGVPSRFSGSGSGTEFTLTISSLQPDDFATYYCQQTKEVPWSFGQGTKVEVKRTVAAPSVFIFPPSDEQLKSGTASVVCLLNNFYPREAKVQWKVDNALQSGNSQESVTEQDSKDSTYSLSSTLTLSKADYEKHKVYACEVTHQGLSSPVTKSFNRGEC
# B2: CD3 × CD33-BspAb75 (bispecific antibody)
# scFv-Fc: EVQLVESGGGLVKPGGSLRLSCAASGFTFSSYSMNWVRQAPGKCLEWVSSISRRSGYIYYADSVKGRFTLSRDNAKKSLYLQMNSLRAEDTAVYYCARDLNWAFDYWGQGTLVTVSSGGGGSGGGGSGGGGSGGGGSNFMLTQPHSVSESPGKTVTISCTRSSGSIASNYVQWYQQRPGSSPTTVIYEDNHRPSGVPDRFSGSIDSSSNSASLTIAGLKTEDEADYYCQSYDSSNVVFGCGTKLTVLGGGGSDKTHTCPPCPAPEFEGGPSVFLFPPKPKDTLMISRTPEVTCVVVDVSHEDPEVKFNWYVDGVEVHNAKTKPREEQYNSTYRVVSVLTVLHQDWLNGKEYKCKVSNKALPASIEKTISKAKGQPREPQVYTLPPCREEMTKNQVSLWCLVKGFYPSDIAVEWESNGQPENNYKTTPPVLDSDGSFFLYSKLTVDKSRWQQGNVFSCSVMHEALHNHYTQKSLSLSPGK
# heavy: B1 chain 2
# light: B1 chain 3
# notes: KiH heterodimer
# B3: CD3 × CD33-BspAb73 (bispecific antibody)
# scFv-Fc: EVQLVESGGGLVKPGGSLRLSCAASGFTFSSYSMNWVRQAPGKCLEWVSSVNSRGSYIYYADSVKGRFTISRDNAKDSLYLQMNSLRADDTAVYYCARDRRELLLDYWGQGTLVTVSSGGGGSGGGGSGGGGSGGGGSSYELTQPPSVSVSPGQTARITCSGDALPKKYAYWYQQKSGQAPVLVIYEDSKRPSGIPERFSGSSSGTMATLTISGAQVEDEADYYCYSTDSSGNHSWVFGCGTKLTVLGGGGSDKTHTCPPCPAPEFEGGPSVFLFPPKPKDTLMISRTPEVTCVVVDVSHEDPEVKFNWYVDGVEVHNAKTKPREEQYNSTYRVVSVLTVLHQDWLNGKEYKCKVSNKALPASIEKTISKAKGQPREPQVYTLPPCREEMTKNQVSLWCLVKGFYPSDIAVEWESNGQPENNYKTTPPVLDSDGSFFLYSKLTVDKSRWQQGNVFSCSVMHEALHNHYTQKSLSLSPGK
# heavy: B1 chain 2
# light: B1 chain 3
# notes: KiH heterodimer
# B4: CD3 × CD33-BspAb62 (bispecific antibody)
# chain 1: NFMLTQPHSVSESPGKTVTISCTRSSGSIASNYVQWYQQRPGSSPTTVIYEDNQRPSGVPDRFSGSIDSSSNSASLTISGLKTEDEADYYCQSYDSSNHVFGCGTKLTVLGGGGSGGGGSGGGGSGGGGSEVQLVESGGGLVQPGGSLRLSCAASGFTFSRYSMNWVRQAPGKCLEWVSYISSSSSSIYYADSVKGRFTISRDNAKNSLYLQMNSLRDEDTAVYYCARDRRATLDYWGQGTLVTVSSDKTHTCPPCPAPEFEGGPSVFLFPPKPKDTLMISRTPEVTCVVVDVSHEDPEVKFNWYVDGVEVHNAKTKPREEQYNSTYRVVSVLTVLHQDWLNGKEYKCKVSNKALPASIEKTISKAKGQPREPQVYTLPPCREEMTKNQVSLWCLVKGFYPSDIAVEWESNGQPENNYKTTPPVLDSDGSFFLYSKLTVDKSRWQQGNVFSCSVMHEALHNHYTQKSLSLSPGK
# chain 2: B1 chain 2
# chain 3: B1 chain 3
# B5: CD3 × CD33-BspAb65 (bispecific antibody)
# chain 1: NFMLTQPHSVSESPGKTVTIACTRSSGSIASNYVQWYQQRPGSSPTTVIYEDNQRPSGVPDRFSGSIDSSSNSASLTISGLKTEDEADYYCQSYDSSNQVFGCGTKLTVLGGGGSGGGGSGGGGSGGGGSQVTLKESGPGILQPSQTLSLTCSFSGFSLSTFGMGVGWIRQPSGKCLEWLAHIWWDDDKYYNPALKSRLTISKDTSKNQVFLKIANVDTADTATYYCARLGYYPYWFFDVWGTGTTVTVSSDKTHTCPPCPAPEFEGGPSVFLFPPKPKDTLMISRTPEVTCVVVDVSHEDPEVKFNWYVDGVEVHNAKTKPREEQYNSTYRVVSVLTVLHQDWLNGKEYKCKVSNKALPASIEKTISKAKGQPREPQVYTLPPCREEMTKNQVSLWCLVKGFYPSDIAVEWESNGQPENNYKTTPPVLDSDGSFFLYSKLTVDKSRWQQGNVFSCSVMHEALHNHYTQKSLSLSPGK
# chain 2: B1 chain 2
# chain 3: B1 chain 3
# B6: CD3 × CD33-BspAb50 (bispecific antibody)
# chain 1: not shown
# chain 2: B1 chain 2
# chain 3: B1 chain 3
# B7: CD3 × CD33-BspAb51 (bispecific antibody)
# chain 1: not shown
# chain 2: B1 chain 2
# chain 3: B1 chain 3
# B8: CD3 × CD33-BspAb52 (bispecific antibody)
# chain 1: not shown
# chain 2: B1 chain 2
# chain 3: B1 chain 3
# B9: CD3 × CD33-BspAb37 (bispecific antibody)
# chain 1: not shown
# chain 2: B1 chain 2
# chain 3: B1 chain 3
# B10: CD3 × CD33-BspAb61 (bispecific antibody)
# chain 1: NFMLTQPHSVSESPGKTVTISCTRSSGSIASNYVQWYQQRPGSSPTTVIYEDNQRPSGVPDRFSGSIDSSSNSASLTISGLKTEDEADYYCQSFDNSNRVFGCGTKLTVLGGGGSGGGGSGGGGSGGGGSEVQLVESGGGLVKPGGSLRLSCAASGFTFSRYSMNWVRQAPGKCLKWVSSISSSGSYKYYADSVKGRFTISRDNAKNSLYLQMNSLRAEDTAVYYCAREPPTLGMDYWGQGTLVTVSSDKTHTCPPCPAPEFEGGPSVFLFPPKPKDTLMISRTPEVTCVVVDVSHEDPEVKFNWYVDGVEVHNAKTKPREEQYNSTYRVVSVLTVLHQDWLNGKEYKCKVSNKALPASIEKTISKAKGQPREPQVYTLPPCREEMTKNQVSLWCLVKGFYPSDIAVEWESNGQPENNYKTTPPVLDSDGSFFLYSKLTVDKSRWQQGNVFSCSVMHEALHNHYTQKSLSLSPGK
# chain 2: B1 chain 2
# chain 3: B1 chain 3
# Biological target: T1, human CD3 (TCR/CD3 complex on the cell surface) (human, UniProt P07766 23-207; P04234 22-171; P09693 23-182)
# T1 construct: whole, on cells; Native CD3 on human Pan-T cells or Jurkat wild-type cells; also called CD3 on Pan-T cells; CD3 on Jurkat WT cells
# T1 sequence (P07766 23-207, chain 1 of 3): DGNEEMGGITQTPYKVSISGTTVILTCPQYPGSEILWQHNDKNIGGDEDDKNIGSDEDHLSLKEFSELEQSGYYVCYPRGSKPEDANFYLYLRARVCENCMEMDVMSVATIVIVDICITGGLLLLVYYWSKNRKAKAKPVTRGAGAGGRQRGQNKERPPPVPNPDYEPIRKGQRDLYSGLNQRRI
# T1 sequence (P04234 22-171, chain 2 of 3): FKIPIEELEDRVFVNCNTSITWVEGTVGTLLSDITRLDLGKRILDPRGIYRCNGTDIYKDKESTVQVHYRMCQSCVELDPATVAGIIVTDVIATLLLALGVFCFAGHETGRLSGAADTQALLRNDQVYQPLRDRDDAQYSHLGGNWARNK
# T1 sequence (P09693 23-182, chain 3 of 3): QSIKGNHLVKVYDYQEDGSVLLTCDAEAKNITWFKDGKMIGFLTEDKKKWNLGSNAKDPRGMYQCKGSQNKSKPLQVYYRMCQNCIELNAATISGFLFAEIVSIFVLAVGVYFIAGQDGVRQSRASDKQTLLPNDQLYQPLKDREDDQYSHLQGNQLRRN
# Assay: flow cytometry, Pan-T cells, 1 ug/mL
Binder,% Positive [%],gMFI [gMFI]
B1,2,2430
B2,99.2,69800
B3,17.3,4180

# Biological target: T1, human CD3 (TCR/CD3 complex on the cell …)
# Assay: flow cytometry, Pan-T cells, 10 ug/mL
Binder,% Positive [%],gMFI [gMFI]
B1,66.1,8340
B2,99.7,149000
B3,95.9,22000

# Biological target: T1, human CD3 (TCR/CD3 complex on the cell …)
# Assay: flow cytometry, Jurkat WT cells, 1 ug/mL
row,Binder,gMFI [gMFI]
1,B1,1950
2,B2,11300
3,B3,2510

# Biological target: T1, human CD3 (TCR/CD3 complex on the cell …)
# Assay: flow cytometry, Jurkat WT cells, 10 ug/mL
row,Binder,gMFI [gMFI]
1,B1,3760
2,B2,15900
3,B3,6110

# Biological target: T1, human CD3 (TCR/CD3 complex on the cell …)
# Assay: flow cytometry, Jurkat WT gMFI over Jurkat KO gMFI, 1 ug/mL
row,Binder,Jurkat WT/KO (Fold) [fold]
1,B1,1
2,B2,5.3
3,B3,1.2

# Biological target: T1, human CD3 (TCR/CD3 complex on the cell …)
# Assay: flow cytometry, Jurkat WT gMFI over Jurkat KO gMFI, 10 ug/mL
row,Binder,Jurkat WT/KO (Fold) [fold]
1,B1,2
2,B2,7.2
3,B3,3

# Biological target: recombinant CD3 proteins
# Assay: Octet (BLI), bispecific antibody against recombinant CD3 proteins
Binder,Kd [nM],Response,koff [s⁻¹],kon [M⁻¹ s⁻¹]
B4,85.9,0.25,0.0474,552000
B5,11.7,0.09,0.00134,114000
B6,125,0.33,0.00262,21000
B7,74,0.26,0.00232,31400
B8,19.5,0.07,0.00751,386000
B9,213,0.34,0.00336,15800
B10,7.62,0.74,0.00187,245000
